According to US12104178B2, “DHFR tunable protein regulation” (Obsidian Therapeutics, Inc., priority 2017, dated 2024):

Tested on: HCT116 cells
Assay: Combination mutation analysis, TMP dose response MFI
Type: cell-based, human
Description: Mutations identified by random mutagenesis were combined with mutations identified by site directed mutagenesis.

Molecule	MFI (DMSO, 48 h)	Stabilization ratio (TMP dose (log) −4)	MFI (TMP dose (log) −4, 48 h)	Stabilization ratio (TMP dose (log) −4.48)	MFI (TMP dose (log) −4.48, 48 h)	Stabilization ratio (TMP dose (log) −4.95)	MFI (TMP dose (log) −4.95, 48 h)	Stabilization ratio (TMP dose (log) −5.43)	MFI (TMP dose (log) −5.43, 48 h)	Stabilization ratio (TMP dose (log) −5.91)	MFI (TMP dose (log) −5.91, 48 h)	Stabilization ratio (TMP dose (log) −6.39)	MFI (TMP dose (log) −6.39, 48 h)	Stabilization ratio (TMP dose (log) −6.86)	MFI (TMP dose (log) −6.86, 48 h)
OT-DHFRC-029: combination mutant hDHFR (I17V, Y122I) (protein, UniProt P00374 1-187, looked up, variant I17V Y122I) Dihydrofolate reductase: MVGSLNCIVAVSQNMGVGKNGDLPWPPLRNEFRYFQRMTTTSSVEGKQNLVIMGKKTWFSIPEKNRPLKGRINLVLSRELKEPPQGAHFLSRSLDDALKLTEQPELANKVDMVWIVGGSSVIKEAMNHPGHLKLFVTRIMQDFESDTFFPEIDLEKYKLLPEYPGVLSDVQEEKGIKYKFEVYEKND	3041	52.17	158659	37.93	115339	21.76	66170	7.71	23454	2.29	6966	1.43	4355	1.13	3439
OT-hDHFRC-030: combination mutant hDHFR (Y122I, M140I) (protein, UniProt P00374 1-187, looked up, variant Y122I M140I) Dihydrofolate reductase: MVGSLNCIVAVSQNMGIGKNGDLPWPPLRNEFRYFQRMTTTSSVEGKQNLVIMGKKTWFSIPEKNRPLKGRINLVLSRELKEPPQGAHFLSRSLDDALKLTEQPELANKVDMVWIVGGSSVIKEAMNHPGHLKLFVTRIIQDFESDTFFPEIDLEKYKLLPEYPGVLSDVQEEKGIKYKFEVYEKND	2539	26.28	66732	8.23	20890	2.62	6641	1.38	3494	1.09	2766	1.03	2618	1.04	2643
OT-hDHFRC-032: combination mutant hDHFR (Y122I, H131R, E144G) (protein, UniProt P00374 1-187, looked up, variant Y122I H131R E144G) Dihydrofolate reductase: MVGSLNCIVAVSQNMGIGKNGDLPWPPLRNEFRYFQRMTTTSSVEGKQNLVIMGKKTWFSIPEKNRPLKGRINLVLSRELKEPPQGAHFLSRSLDDALKLTEQPELANKVDMVWIVGGSSVIKEAMNHPGRLKLFVTRIMQDFGSDTFFPEIDLEKYKLLPEYPGVLSDVQEEKGIKYKFEVYEKND	2627	18.99	49891	4.66	12247	1.94	5092	1.24	3246	1.08	2826	1.03	2694	1.03	2704
OT-hDHFRC-031: combination mutant hDHFR (N127Y, Y122I) (protein, UniProt P00374 1-187, looked up, variant N127Y Y122I) Dihydrofolate reductase: MVGSLNCIVAVSQNMGIGKNGDLPWPPLRNEFRYFQRMTTTSSVEGKQNLVIMGKKTWFSIPEKNRPLKGRINLVLSRELKEPPQGAHFLSRSLDDALKLTEQPELANKVDMVWIVGGSSVIKEAMYHPGHLKLFVTRIMQDFESDTFFPEIDLEKYKLLPEYPGVLSDVQEEKGIKYKFEVYEKND	2565	56.59	145144	38.52	98805	20.77	53282	6.14	15743	2.17	5576	1.30	3345	1.14	2922
